# Results: US20190056396A1 (GLENMARK PHARMACEUTICALS S A, published 2019)
# How the values were obtained:
# Protein A [1] = biological target: T1, Protein A (UniProt P38507 37-477); experiment: flow cytometry, FITC-labelled Protein A on CHO-S cells transfected with pHC-M1M2 + pLC
# T1 construct: also called Protein A biosensors
# Protein A [2] = biological target: T1, Protein A; experiment: Octet QK, Protein A biosensors, supernatant day 6
Binder,binding result (Protein A [1]),binding result (Protein A [2])
"heavy chain-light chain homodimer of the BEAT antibody displayed on the cell membrane of CHO-S cells via the M1M2 transmembrane region (pHC-M1M2 + pLC) (antibody, also called Fab-DIM; Fab homodimer) heavy: not shown light: QIVLTQSPAIMSASPGEKVTMTCSASSSVSYMNWYQQKSGTSPKRWIYDTSKLASGVPAHFRGSGSGTSYSLTISGMEAEDAATYYCQQWSSNPFTFGSGTKLEINRTVAAPSVFIFPPSDEQLKSGTASVVCLLNNFYPREAKVQWKVDNALQSGNSQESVTEQDSKDSTYSLSSTLTLSKADYEKHKVYACEVTHQGLSSPVTKSFNRGEC",no binding,–
"secreted heavy chain-light chain homodimer of the BEAT antibody (antibody, also called Fab-DIM; Fab homodimer) heavy: not shown light: QIVLTQSPAIMSASPGEKVTMTCSASSSVSYMNWYQQKSGTSPKRWIYDTSKLASGVPAHFRGSGSGTSYSLTISGMEAEDAATYYCQQWSSNPFTFGSGTKLEINRTVAAPSVFIFPPSDEQLKSGTASVVCLLNNFYPREAKVQWKVDNALQSGNSQESVTEQDSKDSTYSLSSTLTLSKADYEKHKVYACEVTHQGLSSPVTKSFNRGEC",–,no binding
